B1: CE115HA000 S62K (antibody, name in Kabat numbering, V domains shown)
VH: QVQLVESGGGVVQPGRSLRLSCAASGFTFSNAWMHWVRQAPGKGLEWVAQIKAKSNNYATYYAEKVKGRFTISRDDSKNSLYLQMNSLKTEDTAVYYCRYVHYGAYYGVDAWGQGTTVTVSS
VL: DIVMTQSPLSLPVTPGEPASISCRSSQSLVHSNRNTYLHWYQQKPGQAPRLLIYKVSNRFSGVPDRFSGSGSGTDFTLKISRVEAEDVGVYYCGQGTQVPYTFGQGTKLEIK
B2: CE115HA000 T28S (antibody, name in Kabat numbering, V domains shown)
VH: QVQLVESGGGVVQPGRSLRLSCAASGFSFSNAWMHWVRQAPGKGLEWVAQIKAKSNNYATYYAESVKGRFTISRDDSKNSLYLQMNSLKTEDTAVYYCRYVHYGAYYGVDAWGQGTTVTVSS
VL: DIVMTQSPLSLPVTPGEPASISCRSSQSLVHSNRNTYLHWYQQKPGQAPRLLIYKVSNRFSGVPDRFSGSGSGTDFTLKISRVEAEDVGVYYCGQGTQVPYTFGQGTKLEIK
B3: CE115HA000 W33F (antibody, name in Kabat numbering, V domains shown)
VH: QVQLVESGGGVVQPGRSLRLSCAASGFTFSNAFMHWVRQAPGKGLEWVAQIKAKSNNYATYYAESVKGRFTISRDDSKNSLYLQMNSLKTEDTAVYYCRYVHYGAYYGVDAWGQGTTVTVSS
VL: DIVMTQSPLSLPVTPGEPASISCRSSQSLVHSNRNTYLHWYQQKPGQAPRLLIYKVSNRFSGVPDRFSGSGSGTDFTLKISRVEAEDVGVYYCGQGTQVPYTFGQGTKLEIK
B4: CE115HA000 V95S (antibody, name in Kabat numbering, V domains shown)
VH: QVQLVESGGGVVQPGRSLRLSCAASGFTFSNAWMHWVRQAPGKGLEWVAQIKAKSNNYATYYAESVKGRFTISRDDSKNSLYLQMNSLKTEDTAVYYCRYSHYGAYYGVDAWGQGTTVTVSS
VL: DIVMTQSPLSLPVTPGEPASISCRSSQSLVHSNRNTYLHWYQQKPGQAPRLLIYKVSNRFSGVPDRFSGSGSGTDFTLKISRVEAEDVGVYYCGQGTQVPYTFGQGTKLEIK
B5: CE115HA000 T57K (antibody, name in Kabat numbering, V domains shown)
VH: QVQLVESGGGVVQPGRSLRLSCAASGFTFSNAWMHWVRQAPGKGLEWVAQIKAKSNNYAKYYAESVKGRFTISRDDSKNSLYLQMNSLKTEDTAVYYCRYVHYGAYYGVDAWGQGTTVTVSS
VL: DIVMTQSPLSLPVTPGEPASISCRSSQSLVHSNRNTYLHWYQQKPGQAPRLLIYKVSNRFSGVPDRFSGSGSGTDFTLKISRVEAEDVGVYYCGQGTQVPYTFGQGTKLEIK
B6: CE115HA000 V95D (antibody, name in Kabat numbering, V domains shown)
VH: QVQLVESGGGVVQPGRSLRLSCAASGFTFSNAWMHWVRQAPGKGLEWVAQIKAKSNNYATYYAESVKGRFTISRDDSKNSLYLQMNSLKTEDTAVYYCRYDHYGAYYGVDAWGQGTTVTVSS
VL: DIVMTQSPLSLPVTPGEPASISCRSSQSLVHSNRNTYLHWYQQKPGQAPRLLIYKVSNRFSGVPDRFSGSGSGTDFTLKISRVEAEDVGVYYCGQGTQVPYTFGQGTKLEIK
B7: CE115HA000 S74P (antibody, name in Kabat numbering, V domains shown)
VH: QVQLVESGGGVVQPGRSLRLSCAASGFTFSNAWMHWVRQAPGKGLEWVAQIKAKSNNYATYYAESVKGRFTISRDDPKNSLYLQMNSLKTEDTAVYYCRYVHYGAYYGVDAWGQGTTVTVSS
VL: DIVMTQSPLSLPVTPGEPASISCRSSQSLVHSNRNTYLHWYQQKPGQAPRLLIYKVSNRFSGVPDRFSGSGSGTDFTLKISRVEAEDVGVYYCGQGTQVPYTFGQGTKLEIK
B8: CE115HA000 S62P (antibody, name in Kabat numbering, V domains shown)
VH: QVQLVESGGGVVQPGRSLRLSCAASGFTFSNAWMHWVRQAPGKGLEWVAQIKAKSNNYATYYAEPVKGRFTISRDDSKNSLYLQMNSLKTEDTAVYYCRYVHYGAYYGVDAWGQGTTVTVSS
VL: DIVMTQSPLSLPVTPGEPASISCRSSQSLVHSNRNTYLHWYQQKPGQAPRLLIYKVSNRFSGVPDRFSGSGSGTDFTLKISRVEAEDVGVYYCGQGTQVPYTFGQGTKLEIK
B9: CE115HA000 W33D (antibody, name in Kabat numbering, V domains shown)
VH: QVQLVESGGGVVQPGRSLRLSCAASGFTFSNADMHWVRQAPGKGLEWVAQIKAKSNNYATYYAESVKGRFTISRDDSKNSLYLQMNSLKTEDTAVYYCRYVHYGAYYGVDAWGQGTTVTVSS
VL: DIVMTQSPLSLPVTPGEPASISCRSSQSLVHSNRNTYLHWYQQKPGQAPRLLIYKVSNRFSGVPDRFSGSGSGTDFTLKISRVEAEDVGVYYCGQGTQVPYTFGQGTKLEIK
B10: CE115HA000 V100cP (antibody, name in Kabat numbering, V domains shown)
VH: QVQLVESGGGVVQPGRSLRLSCAASGFTFSNAWMHWVRQAPGKGLEWVAQIKAKSNNYATYYAESVKGRFTISRDDSKNSLYLQMNSLKTEDTAVYYCRYVHYGAYYGPDAWGQGTTVTVSS
VL: DIVMTQSPLSLPVTPGEPASISCRSSQSLVHSNRNTYLHWYQQKPGQAPRLLIYKVSNRFSGVPDRFSGSGSGTDFTLKISRVEAEDVGVYYCGQGTQVPYTFGQGTKLEIK
B11: CE115HA000 W33A (antibody, name in Kabat numbering, V domains shown)
VH: QVQLVESGGGVVQPGRSLRLSCAASGFTFSNAAMHWVRQAPGKGLEWVAQIKAKSNNYATYYAESVKGRFTISRDDSKNSLYLQMNSLKTEDTAVYYCRYVHYGAYYGVDAWGQGTTVTVSS
VL: DIVMTQSPLSLPVTPGEPASISCRSSQSLVHSNRNTYLHWYQQKPGQAPRLLIYKVSNRFSGVPDRFSGSGSGTDFTLKISRVEAEDVGVYYCGQGTQVPYTFGQGTKLEIK
B12: CE115HA000 T57A (antibody, name in Kabat numbering, V domains shown)
VH: QVQLVESGGGVVQPGRSLRLSCAASGFTFSNAWMHWVRQAPGKGLEWVAQIKAKSNNYAAYYAESVKGRFTISRDDSKNSLYLQMNSLKTEDTAVYYCRYVHYGAYYGVDAWGQGTTVTVSS
VL: DIVMTQSPLSLPVTPGEPASISCRSSQSLVHSNRNTYLHWYQQKPGQAPRLLIYKVSNRFSGVPDRFSGSGSGTDFTLKISRVEAEDVGVYYCGQGTQVPYTFGQGTKLEIK
B13: CE115HA000 W33H (antibody, name in Kabat numbering, V domains shown)
VH: QVQLVESGGGVVQPGRSLRLSCAASGFTFSNAHMHWVRQAPGKGLEWVAQIKAKSNNYATYYAESVKGRFTISRDDSKNSLYLQMNSLKTEDTAVYYCRYVHYGAYYGVDAWGQGTTVTVSS
VL: DIVMTQSPLSLPVTPGEPASISCRSSQSLVHSNRNTYLHWYQQKPGQAPRLLIYKVSNRFSGVPDRFSGSGSGTDFTLKISRVEAEDVGVYYCGQGTQVPYTFGQGTKLEIK
B14: CE115HA000 T57N (antibody, name in Kabat numbering, V domains shown)
VH: QVQLVESGGGVVQPGRSLRLSCAASGFTFSNAWMHWVRQAPGKGLEWVAQIKAKSNNYANYYAESVKGRFTISRDDSKNSLYLQMNSLKTEDTAVYYCRYVHYGAYYGVDAWGQGTTVTVSS
VL: DIVMTQSPLSLPVTPGEPASISCRSSQSLVHSNRNTYLHWYQQKPGQAPRLLIYKVSNRFSGVPDRFSGSGSGTDFTLKISRVEAEDVGVYYCGQGTQVPYTFGQGTKLEIK
B15: CE115HA000 S77T (antibody, name in Kabat numbering, V domains shown)
VH: QVQLVESGGGVVQPGRSLRLSCAASGFTFSNAWMHWVRQAPGKGLEWVAQIKAKSNNYATYYAESVKGRFTISRDDSKNTLYLQMNSLKTEDTAVYYCRYVHYGAYYGVDAWGQGTTVTVSS
VL: DIVMTQSPLSLPVTPGEPASISCRSSQSLVHSNRNTYLHWYQQKPGQAPRLLIYKVSNRFSGVPDRFSGSGSGTDFTLKISRVEAEDVGVYYCGQGTQVPYTFGQGTKLEIK
B16: CE115HA000 T28D (antibody, name in Kabat numbering, V domains shown)
VH: QVQLVESGGGVVQPGRSLRLSCAASGFDFSNAWMHWVRQAPGKGLEWVAQIKAKSNNYATYYAESVKGRFTISRDDSKNSLYLQMNSLKTEDTAVYYCRYVHYGAYYGVDAWGQGTTVTVSS
VL: DIVMTQSPLSLPVTPGEPASISCRSSQSLVHSNRNTYLHWYQQKPGQAPRLLIYKVSNRFSGVPDRFSGSGSGTDFTLKISRVEAEDVGVYYCGQGTQVPYTFGQGTKLEIK
B17: CE115HA000 W33L (antibody, name in Kabat numbering, V domains shown)
VH: QVQLVESGGGVVQPGRSLRLSCAASGFTFSNALMHWVRQAPGKGLEWVAQIKAKSNNYATYYAESVKGRFTISRDDSKNSLYLQMNSLKTEDTAVYYCRYVHYGAYYGVDAWGQGTTVTVSS
VL: DIVMTQSPLSLPVTPGEPASISCRSSQSLVHSNRNTYLHWYQQKPGQAPRLLIYKVSNRFSGVPDRFSGSGSGTDFTLKISRVEAEDVGVYYCGQGTQVPYTFGQGTKLEIK
B18: CE115HA000 V11L (antibody, name in Kabat numbering, V domains shown)
VH: QVQLVESGGGLVQPGRSLRLSCAASGFTFSNAWMHWVRQAPGKGLEWVAQIKAKSNNYATYYAESVKGRFTISRDDSKNSLYLQMNSLKTEDTAVYYCRYVHYGAYYGVDAWGQGTTVTVSS
VL: DIVMTQSPLSLPVTPGEPASISCRSSQSLVHSNRNTYLHWYQQKPGQAPRLLIYKVSNRFSGVPDRFSGSGSGTDFTLKISRVEAEDVGVYYCGQGTQVPYTFGQGTKLEIK
B19: CE115HA000 V100cA (antibody, name in Kabat numbering, V domains shown)
VH: QVQLVESGGGVVQPGRSLRLSCAASGFTFSNAWMHWVRQAPGKGLEWVAQIKAKSNNYATYYAESVKGRFTISRDDSKNSLYLQMNSLKTEDTAVYYCRYVHYGAYYGADAWGQGTTVTVSS
VL: DIVMTQSPLSLPVTPGEPASISCRSSQSLVHSNRNTYLHWYQQKPGQAPRLLIYKVSNRFSGVPDRFSGSGSGTDFTLKISRVEAEDVGVYYCGQGTQVPYTFGQGTKLEIK
B20: CE115HA000 T57I (antibody, name in Kabat numbering, V domains shown)
VH: QVQLVESGGGVVQPGRSLRLSCAASGFTFSNAWMHWVRQAPGKGLEWVAQIKAKSNNYAIYYAESVKGRFTISRDDSKNSLYLQMNSLKTEDTAVYYCRYVHYGAYYGVDAWGQGTTVTVSS
VL: DIVMTQSPLSLPVTPGEPASISCRSSQSLVHSNRNTYLHWYQQKPGQAPRLLIYKVSNRFSGVPDRFSGSGSGTDFTLKISRVEAEDVGVYYCGQGTQVPYTFGQGTKLEIK

Experimental findings from US20220040297A1 (Chugai, published 2022) are described below.
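Further: biacore SPR with antibody variants flowed as analyte over amine-coupled CD3ε homodimer on a CM chip, bound amount of each single-residue H chain variant over that of parent.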

T1 sequence (P07766 23-126 limits assumed): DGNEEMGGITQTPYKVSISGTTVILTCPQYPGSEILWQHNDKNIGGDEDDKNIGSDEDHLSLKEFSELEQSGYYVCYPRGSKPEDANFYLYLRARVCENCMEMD

The assay has as its target T1, CD3ε homodimer protein (human, UniProt P07766 23-126, limits assumed, sulfo-tag or biotin label in some ECL assays).
T1 construct: also called human CD3ε homodimer protein; CD3 (CD3ε)
The assay is described as follows: SPR, CD3ε homodimer on chip. (SPR reads the build-up and loss of mass on a sensor chip optically.)
In the case of B1, the “ratio of amounts bound vs CE115HA000” value is 1.19. For the molecule B2, the “ratio of amounts bound vs CE115HA000” value is 0.91. Regarding B3, the “ratio of amounts bound vs CE115HA000” value turned out to be 0.65.

For B4, the “ratio of amounts bound vs CE115HA000” value is 0.22. Consider B5, for which the “ratio of amounts bound vs CE115HA000” value was 1.32.

As to B6, the “ratio of amounts bound vs CE115HA000” value is 0.24. For the molecule B7, the “ratio of amounts bound vs CE115HA000” value came to 0.91. As to B8, the “ratio of amounts bound vs CE115HA000” value stood at 1. Then B9, with 0.1; and B10, with 0.8; and B11, with 0.1.

For the molecule B12, the “ratio of amounts bound vs CE115HA000” value is 0.98.

Regarding B13, the “ratio of amounts bound vs CE115HA000” value was 0.13.

With B14, the “ratio of amounts bound vs CE115HA000” value is 0.97. As for B15, the “ratio of amounts bound vs CE115HA000” value was 0.9. For B16, the “ratio of amounts bound vs CE115HA000” value turned out to be 0.56. Turning to B17, the “ratio of amounts bound vs CE115HA000” value turned out to be 0.1. For B18, the “ratio of amounts bound vs CE115HA000” value is 1. As to B19, the “ratio of amounts bound vs CE115HA000” value is 0.48. With B20, the “ratio of amounts bound vs CE115HA000” value came out at 0.61.
